# Source: patent US20240294641A1 (CHILDREN S MEDICAL CENTER, published 2024)
# Like-named read-outs stand apart in the source and are kept apart here.
# What was measured:
# [1] = molecular target: T1, PD1 extracellular domain, without fusion to other proteins (human, UniProt Q15116 25-170); experiment: ELISA, plate coated with PD1 extracellular domain without Fc fusion, OD405
# T1 construct: extracellular domain; also called unfused PD1; monomeric PD1
# Text: (§1) ELISA was used to compare the PD1 binding activities of the new and previous anti-PD1 antibodies. The ELISA coating antigen was a recombinant protein of the extracellular domain of PD1, without fusion to other proteins so that the ELISA measured binding activities specific to PD1.
# [2] = molecular target: T2, full-length human PD1 expressed on NS1 cells (PD1-NS1) (human, UniProt Q15116 25-288); experiment: FACS on PD1-NS1 cells, PE-anti-human kappa
# T2 construct: whole, on cells; also called surface-expressed PD1; PD1 expressing cell line
# [3] = molecular target: T2, full-length human PD1 expressed on NS1 …; experiment: FACS on PD1-NS1 cells, PE-anti-human kappa; remark: listed apart in the source
# Experimental: To test the binding of anti-PD1 antibodies to surface expressed PD1, full-length human PD1 in mouse plasmacytoma cell line, NS1, was expressed. […] A construct that expresses the full length human PD1 was transfected into NS1 cells, and clones with stable integration of the expression construct were obtained. […] For the FACS analysis in FIG. 5B, the PD1-NS1 cells were incubated with anti-PD1 antibodies. […] The FACS staining reaction was analyzed on Attune NXT FACS machine, and the data were plotted with FlowJo 10 software.
# [4] = molecular target: T1, PD1 extracellular domain, without …; experiment: ELISA, plate coated with PD1 extracellular domain without Fc fusion, OD405; remark: listed apart in the source
# Text: as §1
# In this ELISA experiment, PD1 extracellular domain, without Fc fusion, was coated on the ELISA plate.
# [5] = molecular target: T1, PD1 extracellular domain, without …; experiment: Biacore (SPR), antibody immobilized on the sensor chip, PD1 extracellular domain in flow
# Experimental: In this assay, antibodies were immobilized on sensor chips, and PD1 extracellular domain, the same protein used in the ELISA experiment in FIG. 5C, flowed through sensor chip. The kinetics of PD1/antibody interaction was measured in real time. The table lists the association rate constant (kₐ), dissociation rate constant (kd) and equilibrium dissociation constant (KD) for each antibody.
# Biacore analysis of the kinetics of the interaction between anti-PD1 antibodies and PD1 was performed by Affina Biotechnologies. Given the quantitative and sensitive nature of the assay, non-physiological modifications of the antibodies and PD1 were minimized. […] The PD1-Fc fusion protein contains a TEV protease cleavage site. After TEV digest, the PD1 portion was separated from the Fc region. […] However, in the context of the PD-Fc fusion, PD1 is dimerized through the Fc region and may engage in bivalent interactions with IgG antibodies. The avidity effect can cause major deviations from the actual binding affinity between monomeric PD1 and single antigen-binding site. Separation of PD1 from the Fc portion prevented this error. In the biacore assay, the antibodies were immobilized on sensor chips and PD1 was passed over the immobilized antibodies. Association and dissociation of antibodies and PD1 were detected in real time.
# T2 sequence (Q15116 25-288): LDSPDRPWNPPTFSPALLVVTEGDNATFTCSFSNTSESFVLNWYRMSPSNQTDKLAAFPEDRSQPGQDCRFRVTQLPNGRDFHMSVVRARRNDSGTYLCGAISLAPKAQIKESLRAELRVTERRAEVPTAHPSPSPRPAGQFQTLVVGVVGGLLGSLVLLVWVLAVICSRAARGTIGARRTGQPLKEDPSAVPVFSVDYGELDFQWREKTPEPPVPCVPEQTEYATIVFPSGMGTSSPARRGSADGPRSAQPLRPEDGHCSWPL
# T1 sequence (Q15116 25-170): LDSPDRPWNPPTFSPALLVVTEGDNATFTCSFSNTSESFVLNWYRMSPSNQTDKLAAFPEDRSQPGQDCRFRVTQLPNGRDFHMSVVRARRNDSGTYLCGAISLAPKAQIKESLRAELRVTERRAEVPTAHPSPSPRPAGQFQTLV
binder,measurement,setting,value
"M1-4 (antibody, V domains shown, Expressed as human IgG4/kappa in 293F or Expi293 cells; also called 319-9-27) VH: QVQLVESGGDVVQPGGSLRLSCAVSGVTFGDFGFEWVRQAPGKGLEWVAVIWYDGSRKHYAESVRGRFTISRDNSRNMMYLEMTGLRVEDTAKYYCTRSHSHEDYWGQGTLVTVSS VL: EIVLTQSPATLSLSPGERATLSCRASQSISNYLAWFQQKSGQAPRLIIHDAFKRAAGIPTRFSGSGSGTDFTLTISSLEPEDFAVYYCQQRDNWPLNFGGGTKVEIK",binding result,[1],binds
same,binding result,[2],binds
"M1-6 (antibody, V domains shown, Expressed as human IgG4/kappa in 293F or Expi293 cells; also called 319-9-53) VH: QVQLVESGGDVVQSGGSLRLSCAVSGVVFSDYGFEWVRQAPGKGLEWVAVIWYDGSRKHYADSVQGRFTISRDNFRNMLYLQMTGLRVEDTAKYYCTRSHSHEDYWGQGTLVTVSS VL: EIVLTQSPATLSLSPGERATLSCGASQNIDNSLAWFQQKPGQAPRLIIYDASKRATGIPARFSGSGSGTDFTLTISTLEPEDFAVYYCQQRDHWPLNFGGGTKVEVK",binding result,[1],binds
same,binding result,[2],binds
"M1-3 (antibody, V domains shown, Expressed as human IgG4/kappa in 293F or Expi293 cells; also called 319-9-17) VH: QEWLVESGGDVVQPGGSLRLSCATSKVTFNDFGIHWVRQAPGKGLEWVAIIWYDGSRNHYADSVRGRFTLSRDNSKNMVHLHMSSLRTEDTAMYYCARGIHSNDDYWGQGTMVTVSS VL: EIVLTQSPATLSLSPGERATLSCRTSQSVSSDLAWFQQKPGQAPRLFIFDASKRVNGIPARFSGSGSGTDFTLTISSLEPEDFAVYYCQQRTDWPLTFGGGSRVEIK",binding result,[1],binds
same,binding result,[2],binds
"M1-7 (antibody, V domains shown, Expressed as human IgG4/kappa in 293F or Expi293 cells; also called 319-9-75) VH: QLQLVESGGDVVQPGGSLRLSCAASGVVFSDFGLEWVRQAPGKGLEWLAVIWYDGSRKHYADSVKGRFTISRDNSKNMLYLQMNSLRVEDTAMYYCARCHSKEDYWGQGTLVTVSS VL: EIEVTQSPATLSLSPGERATLSCRASQSIDTDLAWFQQRPGQTPRLIIYDASKRATGIPARFSGGGSGTDFTLTISSLEPEDFAVYYCQQRTTWPLTFGGGTKVEIK",binding result,[3],binds
same,binding result,[4],binds
"M1-2 (antibody, V domains shown, Expressed as human IgG4/kappa in 293F or Expi293 cells; also called 319-9-15) VH: QVQLVESGGDVVQPGGSLRLSCAASGVAFSDYGMEWVRQAPGKGLEWLAVIWYDGSRKHYADSVKGRFTISRDNSKNILYLQMNSLRAEDTAMYYCARCHSKDDYWGQGTLVTVSS VL: EIVLTQFPATLSLSPGERATLSCRTSQNIDSDLAWFQQKPGQAPRLIIYDASNRATGIPARFSGGGSGTDFTLTITSLEPEDFAVYYCQQRTTWPLTFGGGTKVEIK",binding result,[1],binds
same,binding result,[2],binds
"17D8 antibody (antibody, V domains shown, Prototype anti-PD1 antibody (U.S. Pat. No. 8,008,449 B2); Produced as human IgG4/kappa; His-tagged for ELISA, untagged for Biacore) VH: QVQLVESGGDVVQPGGSLRLSCAASGVAFSNYGMHWVRQAPGKGLEWVAVIWYDGSNKYYADSVKGRFTISRDNSKNMLYLQMNSLRAEDTAMYYCARNDDYWGQGTLVTVSS VL: EIVLTQSPATLSLSPGERATLSCRASQSVSSYLAWYQQKPGQAPRLIIYDASNRATGIPARFSGSGSGTDFTLTISSLEPEDFAVYYCQQRSNWPLTFGGGTKVEIK",Kd,[5],3.4 nM
same,koff,[5],0.0013 s⁻¹
same,kon,[5],387000 M⁻¹ s⁻¹
"M1-1 (antibody, V domains shown, Expressed as human IgG4/kappa in 293F or Expi293 cells; retains the CDR H3 of 17D8; also called 319-9-8) VH: QVQLVESGGDVVQPGGSLRLSCAASGVAFRDYGMHWVRQAPGKGLEWVAVIWYDGSKKYYGDSVKGRFTVSRDNSKNMLYLEMNGLKAEDTAMYYCARNDDYWGQGTLVTVSS VL: EIVLTQSPATLSLSPGERATLSCRASQSVSNSLSWYQQNPGQSPRLIIYDTSKRATGIPARFSGSGSGTDFTLTINNLETEDFAVYYCHQRSDWPLTFGGGTKVEIK",binding result,[3],binds
same,binding result,[4],binds
"M2-5 (antibody, V domains shown, Expressed as human IgG4/kappa in 293F or Expi293 cells; also called 397-27-93) VH: QVQLVESGGDVVQPGGSLRLSCAASGVVFSDYGLYWVRQAPGKGLEWVALIWYDGSKKFYADSVKGRFSISRDNSKNMLYLQMNNLRADDSAIYYCSRGIRQGPWFAYWGQGTRVTVSP VL: EIVLTQSPATLSLSPGERATLSCRASQSISSDLTWFQQKPGQAPRLIIYDASNRATGIPARFSGSGSGTDFTLTISSLEPEDFVVYYCLQRSDWPLTFGGGTKVEIK",binding result,[1],binds
same,binding result,[2],binds
"M2-4 (antibody, V domains shown, Expressed as human IgG4/kappa; 6xHis tag at the C-terminus of the Fc for ELISA) VH: QVQLVESGGDVVQPGGSLRLSCAASGVAFRNYGMHWVRQAPGKGLEWVAIIWYDGSNKYYADSVKGRFTISRDNSKNMLYLQMNSLRAEDTAMYYCARLSIGTTHYFDTDDYWGQGTSVTVSS VL: EIVLTQSPATLSLSPGERATLSCRASQSVSSYLAWYQQKVGQAPRLIIFDASNRATGIPARFSGSGSGTDFTLTITSLDPEDFAVYYCQQRSAWPLTFGGGTKVEIR",binding result,[1],binds
same,binding result,[2],binds
"M2-1 (antibody, human IgG4, V domains shown, Expressed as human IgG4/kappa; without His tag and Protein A purified for Biacore; also called 397-27-3) VH: QVQLVESGGDVVQPGGSLRLSCSASGLVFRDYGMNWVRQAPGKGLEWVGLIWYDGTKKYYSDFVKGRFTISRDNSKNMLYLQMNNLRAEDTAIYYCARFLIGATRRGNAMDYWGQGTSVIVSS VL: EVVLTQSPATLSLSPGERATLSCRASQSIDSDLAWSQQKTGQPPRLIIYDASNRATGIPARFSGSGSGTDFTLTISSLEPEDFAVYYCQQRSDWPLTFGGGTKVEIR",Kd,[5],3.7 nM
same,koff,[5],0.00074 s⁻¹
same,kon,[5],199000 M⁻¹ s⁻¹
"M2-3 (antibody, V domains shown, Expressed as human IgG4/kappa in 293F or Expi293 cells; also called 397-27-25) VH: QGHLVESGGDVVLPGGSLRLSCTESGVDLSDFGIHWVRQTPGKGLEWVALIWYDGSKKFYADSVKDRFTISRDNSKNMVYLEMISLRVEDTAMYFCARGIRRGPWFTYWGPGTLVTVST VL: EIVLTQSPVILSLSPGERATLSCRASQSISSDLAWFQQTPGQAPRLIIYDASNRATGIPARFSGSGSGTDFTLTISSLEPEDFAVYYCQQRSNWPLTFGGGTKVEIK",binding result,[3],binds
same,binding result,[4],binds
"M1-5 (antibody, human IgG4, V domains shown, Expressed as human IgG4/kappa; without His tag and Protein A purified for Biacore; also called 319-9-34) VH: QVQLVESGGDVVQPGGSLRLSCTVSGAVFRDLGMEWVRQAPGKGLEWLAVIWYDGGRKHYADSVKGRFTISRDNSRNMLFLQMNGLRVDDTAMYYCTRSHSTDDYWGQGTLVTVSS VL: EIVLTQSPATLSVSPGERATLSCRASQSISSDLAWFQQKPGQAPRLIIHGASKRATGIPARFSGSGSGTDFTLTISSLEPEDFAVYYCQQRDSWPLNFGGGTKVEIK",Kd,[5],2.1 nM
same,koff,[5],0.0021 s⁻¹
same,kon,[5],995000 M⁻¹ s⁻¹
"M2-2 (antibody, V domains shown, Expressed as human IgG4/kappa in 293F or Expi293 cells; also called 397-27-23) VH: QVQLVESGGDVVQPGGSLRLSCSASGLVISDYGMNWVRQAPGKGLEWVGLIWYDGSKKYYSDFVKGRFTISRDNSKNILYLQMNNLRAEDTAMYYCARFLIGATRRGNAMDYWGQGTSVTVSS VL: EVVLTQSPATLSLSPGERATLSCRASQSIDSDLAWSQQKPGQPPRLIIYDASNRATGIPARFSGSGSGTDFTLTISSLEPEDFAVYYCQQRSDWPLTFGGGTKVEIR",binding result,[1],binds
same,binding result,[2],binds
